This note sets out measurements from publication PMC6323126, “Architecture, substructures, and dynamic assembly of STRIPAK complexes in Hippo signaling” (Cell Discovery, 2019).

The labels stand for the following.
T1: MST2 (recombinant, wildtype) (human, UniProt Q13188 1-491)
T1 construct: MST2 (STK3), human; also called STK3; Hippo kinase MST2; source: E. coli BL21 (DE3) CodonPlus, purified
T1 sequence (looked up): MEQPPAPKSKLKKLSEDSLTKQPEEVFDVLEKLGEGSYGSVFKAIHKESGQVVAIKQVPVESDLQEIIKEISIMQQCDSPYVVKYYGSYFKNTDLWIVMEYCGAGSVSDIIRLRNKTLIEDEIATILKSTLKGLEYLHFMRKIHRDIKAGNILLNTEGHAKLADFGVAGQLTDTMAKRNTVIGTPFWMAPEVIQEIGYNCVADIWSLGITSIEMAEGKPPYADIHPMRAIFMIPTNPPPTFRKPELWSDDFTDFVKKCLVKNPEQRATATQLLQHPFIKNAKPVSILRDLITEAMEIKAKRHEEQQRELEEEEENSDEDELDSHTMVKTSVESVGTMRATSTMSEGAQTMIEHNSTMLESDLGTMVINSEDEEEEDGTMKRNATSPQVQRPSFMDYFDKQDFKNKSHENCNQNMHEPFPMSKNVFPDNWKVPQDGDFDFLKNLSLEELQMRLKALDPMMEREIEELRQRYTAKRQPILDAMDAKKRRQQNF

T2: MST2 kinase domain (residues 1–308) (human, UniProt Q13188 1-308)
T2 construct: also called kinase domain of MST2; source: E. coli BL21 (DE3) CodonPlus, purified
T2 sequence (looked up): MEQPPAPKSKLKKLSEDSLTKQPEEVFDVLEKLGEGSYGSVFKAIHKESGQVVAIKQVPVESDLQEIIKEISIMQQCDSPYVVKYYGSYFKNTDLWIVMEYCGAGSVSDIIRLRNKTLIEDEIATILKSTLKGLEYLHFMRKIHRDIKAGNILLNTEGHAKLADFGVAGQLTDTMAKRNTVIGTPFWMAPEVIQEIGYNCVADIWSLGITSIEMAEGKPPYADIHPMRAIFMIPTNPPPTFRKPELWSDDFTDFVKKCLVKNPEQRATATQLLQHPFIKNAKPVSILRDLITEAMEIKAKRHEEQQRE

T3: SIKE1 CC1 (residues 5–65) (human, UniProt Q9BRV8 5-65)
T3 construct: SIKE1, human, residues 5-65; Homodimer within the 2:2 crystal complex; also called residues 5–65 of SIKE1; source: E. coli BL21 (DE3) CodonPlus, purified
T3 sequence (looked up): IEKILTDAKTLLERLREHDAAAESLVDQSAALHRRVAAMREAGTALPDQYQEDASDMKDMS

B1: MST2 middle linker region (residues 308–435) (domain or fragment, human, UniProt Q13188 308-435, looked up)
chain: ELEEEEENSDEDELDSHTMVKTSVESVGTMRATSTMSEGAQTMIEHNSTMLESDLGTMVINSEDEEEEDGTMKRNATSPQVQRPSFMDYFDKQDFKNKSHENCNQNMHEPFPMSKNVFPDNWKVPQDG
notes: also called linker region of MST2; source: E. coli BL21 (DE3) CodonPlus, purified
B2: FHA domain (residues 5–135) of SLMAP (domain or fragment, human, UniProt Q14BN4 5-135, looked up)
chain: LAIFTCRPNSHPFQERHVYLDEPIKIGRSVARCRPAQNNATFDCKVLSRNHALVWFDHKTGKFYLQDTKSSNGTFINSQRLSRGSEESPPCEILSGDIIQFGVDVTENTRKVTHGCIVSTIKLFLPDGMEA
notes: also called SLMAP (FHA); SLMAP FHA domain; source: E. coli BL21 (DE3) CodonPlus, purified
B3: SLMAP CC1 (residues 167–226) (domain or fragment, human, UniProt Q14BN4 167-226, looked up)
chain: QLSQYLQEALHREQMLEQKLATLQRLLAITQEASDTSWQALIDEDRLLSRLEVMGNQLQA
notes: Homodimer within the 2:2 crystal complex; source: E. coli BL21 (DE3) CodonPlus, purified

For data set [1], the target named is B2. Put plainly: pull-down; GST pulldown: GST-tagged protein, partner and glutathione Sepharose mixed at 4 °C for 1 h in 20 mM HEPES (pH 7.5), 100 mM NaCl; eluted with 20 mM reduced glutathione; SDS-PAGE, Coomassie staining. The settings on record: both partners purified.
Data set [2] deals with T4, MST4 kinase domain (residues 1–300) (human, UniProt Q9P289 1-300).
T4 construct: MST4 (STK26), human, residues 1-300; also called N-terminal kinase domain of MST4; source: E. coli BL21 (DE3) CodonPlus, purified
T4 sequence (Q9P289 1-300): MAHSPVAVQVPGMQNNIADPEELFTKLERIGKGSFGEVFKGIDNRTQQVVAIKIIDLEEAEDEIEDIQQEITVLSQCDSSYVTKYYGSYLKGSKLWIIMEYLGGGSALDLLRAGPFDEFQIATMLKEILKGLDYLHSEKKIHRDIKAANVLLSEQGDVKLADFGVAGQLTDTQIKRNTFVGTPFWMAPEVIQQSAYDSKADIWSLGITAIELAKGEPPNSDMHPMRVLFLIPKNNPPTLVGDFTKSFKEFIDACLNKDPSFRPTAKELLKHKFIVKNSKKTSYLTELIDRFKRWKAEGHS
Put plainly: pull-down; pulldown with purified recombinant proteins shown in supplementary figures; whether GST or MBP and who carried the tag not told. The settings on record: both partners purified.

The target in data set [3] is T1, MST2 (recombinant, wildtype). Described as above. The note with it: both partners purified.
The target of data set [4] is T5, MST4 (recombinant) (human, UniProt Q9P289 1-416).
T5 construct: MST4 (STK26), human; also called STK26; source: E. coli BL21 (DE3) CodonPlus, purified
T5 sequence (Q9P289 whole entry): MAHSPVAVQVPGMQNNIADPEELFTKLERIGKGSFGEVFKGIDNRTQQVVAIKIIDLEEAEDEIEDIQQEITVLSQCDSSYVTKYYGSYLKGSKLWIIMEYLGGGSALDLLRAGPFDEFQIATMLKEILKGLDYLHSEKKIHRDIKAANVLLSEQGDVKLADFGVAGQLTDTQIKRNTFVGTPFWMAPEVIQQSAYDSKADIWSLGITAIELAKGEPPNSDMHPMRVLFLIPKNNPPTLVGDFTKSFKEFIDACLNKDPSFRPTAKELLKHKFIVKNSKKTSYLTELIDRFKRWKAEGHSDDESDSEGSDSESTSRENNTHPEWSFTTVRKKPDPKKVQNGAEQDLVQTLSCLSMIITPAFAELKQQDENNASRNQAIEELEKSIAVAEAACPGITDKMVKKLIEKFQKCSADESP
The data set is described as above. The note with it: both partners purified.

The target of data set [5] is T2, MST2 kinase domain (residues 1–308). Briefly: pull-down; GST pulldown: GST-tagged protein, partner and glutathione Sepharose mixed at 4 °C for 1 h in 20 mM HEPES (pH 7.5), 100 mM NaCl; eluted with 20 mM reduced glutathione; SDS-PAGE, Coomassie staining. The settings on record: both partners purified.
Data set [6] deals with T3, SIKE1 CC1 (residues 5–65). Put plainly: crystal structure; SIKE1 CC1-SLMAP CC1 complex reconstituted 1:1 and gel-filtered, 2.3 Å; 0.1 M sodium citrate (pH 5.5), 15% PEG 6000, 16 °C. The note with it: both partners purified.
Data set [7] deals with the molecule itself. Described as above.
The target in data set [8] is T3, SIKE1 CC1 (residues 5–65). Put plainly: not stated; Kd of the minimal regions, Supplementary Fig. S7c; method not given. The note with it: both partners purified.

B1: in data set [1], the binding result is “binds”.
With B2, the binding result in data set [2], in data set [3], in data set [4] and in data set [5] was “binds” throughout.
One may read the stoichiometry N as a count of units in the complex or per binding partner. As a reminder, the Kd is the equilibrium constant for the complex coming apart. With B3, the “stoichiometry N” value in data set [6] is 1 SIKE1 CC1 per SLMAP CC1 (2:2); in data set [7] it was 2. The molecule also had a Kd in data set [8] of 6.9 µM.
